From the DeepSol protein solubility set

Experiment: soluble on expression in E. coli; label from the status in PepcDB or PDB records

Sequence	soluble on expression in E. coli
MGSDKIHHHHHHAFLTLKPVKTPFTMYSSVLGDFVITQLDENKQLHRYDTKGNTYTQQQVDSLLPSLYVRQLTADERFPDTICGKAVSPKDIQLTNFTFKSVPSAINAPQTGLYFLMESMSKRVDLKMPEDAFRFTDKGIEFIRMETNCIDEAKSKLFTDMLVQKGFAFPACYASGNPTTRKDYDEGYLVLDANHKLFHLKCTKGRPYVKAIQLPEGVLPEYVFITEFRSRRTLGYMVDSKHHFYIINSDGSLVKSALPGFDPAKDELTIFGNMFDWTVKLSTDKDDYYYALDATDYSLIKEHAYKDIRRSVPGLSFTSPDDKFVKPRF	not soluble
MNENKLRRLIKKNEYEKLDFKLKIELFTESVKKELAKDICAIANSRGGRGYIIIGVEDKTKKIVGVDADYITEERVQQIVASRIEPPVPISLEECFLDGKRLLVIVIFNSYQKPYQIRENGAFYIRRGSTTDIMRKQELLSEFQKGISFNLETCPIVNSNIDFLNEELVRRYFYLKGIKISKENREFLLSSSNIIHKNNISGKSMCTLGGLLVFSDVNSIYIPHNMIKIRNLLGGEQTFIIRGNILDMMKSMEKKLREIVPNEYPVALIIDTIRNILIYRDYSQYNKIVEVVLGKKELTVYCPGEIVKRYRDGRIGYIKRNMWIYEKIISLDSRDGEMNYNLGGKEVKESFTNKVKVITVNEENITKFIFNKYRTIGLEHHHHHH	soluble
MSLEQMLWDAACSIRGEKDAAKFKDYLLPLLFLKRLSDVFDDEIERLAEEYGDRATALEIAESDHSLLRFYLPPEARWAVISGRESFDWPLDDRGRPTAPRDIGEHLTKAVRAVVKQNPTLSGVIDVVDFAAERNGERDINPAKLRGVVETFSDPRYRLGLADVQPDFLGRAYEYLLRKFAEGSGQSAGEFFTPTEVGFLMAHILRPKPGETCHDYACGSAGLLIKLQLVARELDPTSRVPLKLSGQELQAESYAVAQMNAIIHDMEVELARGDTMINPKFREASGKIRGHDIVVANPMWNQPFAADLFANDPFDRFRTAGGITSGKGDWAWLQHTLACMNDHGRAAVVLDTGAVTRGSGSKNEDKERTIRKWFVEQDLIDGVILLPENLFYNTTAAGVIVVLSRRKPAARKGKIVLLNASRRFKKGRPKNYLPEEDIRPLAAMYLKGEPVEGELAVITTEQAREADYNLSPSRWVGQNGDAEIGSIPNLLRALEQLNEEDASLTSGLLQLLRPLAKTGDAEGHHHHHH	soluble
MGSDKIHHHHHHMYGLIVNKASGNGKGQRTWKKVEYELQIRNTPYLVRFTSGSGHATTIVKELLTEGVKTIIAVGGDGTINEVANGLVNHRVPLGIIPAGSGNDFARCLNIPMHYEKALHRIFENKQKKVDLLHLGQRHCLTVTGIGFDGKIAKTVNEAIYKNWFNQFGFGGLSYVLSMLEVLKDYRPTNIQITVDGKELFFSGVWLVAVANSPNYGGGIRICPEASYDDGLLNICVVHGMSKWQLLRLFPKAYKGKHVVMEQHVTLLTGKDVYVQSDTPVLVQSDGEPIMESPVRLQIKKGALSVV	not soluble
MLETLSFTERDEFQRRNIAENIIKLLKPEADISPLVIDGAWGTGKSEFSIKLKNLIIEQETESKVVYVDAFKGDHAESPLLLITSAIASILPEEEKQNFIKRSLPAIRFGLKTVLKAGAGWFLRQEASEVAEEFQDAMKKASNAAIDGTIENILEDHMESEKNINSLKSCIEDISNKQKIVIIIDELDRCKPSFSTNIIETIKHIFDINNVFFILVTNTEQLKASINHIYGYSINSQKYLDKFIKYTITLPDTCLINGHNVCKTSVIYWDHLVGETTLLNKINSLVGSFICDLIQRTNLSLRETQTFSRNLNIFRLLNDNECKSNDPFINMIVVVAVFIHCFGDKEKLKQEITAESISYLADLLNIKEIPYSYERRSQIPEISIIFFGIIKDSITLNERFAPKSDEELKKFTNVYTDYEHLKFWSTTPRELMIKYINQMSFIQLEHHHHHH	not soluble
RPVWYGEPVDIQPEHRDMMLVVDLSGSMAEEDMKTSNGDFVDRLTAVKQVVSDFIDQRKGDRLGLVLFGDHAYLQTPLTFDRNTVREQLDRTVLNLVGQRTAIGEGLGLATKTFIESNAPQRTIILLSDGANTAGVLEPLEAAQLAKDNHAKIYTVGIGAGEMQVRGFFGKQTVNTARDLDEDTLTKIATMTGGQYFRARNADELAEIYQTI	not soluble
VQEPLRVPPSAPARLVVLASGTGSLLRSLLDAAVGDYPARVVAVGVDRECRAAEIAAEASVPVFTVRLADHPSRDAWDVAITAATAAHEPDLVVSAGFMRILGPQFLSRFYGRTLNTHPALLPAFPGTHGVADALAYGVKVTGATVHLVDAGTDTGPILAQQPVPVLDGDDEETLHERIKVTERRLLVAAVAALATHGVTVVGRTATMGRKVTIG	soluble
